The text below walks through data of US20150274820A1 (ESBATECH AN ALCON BIOMEDICAL RESEARCH UNIT, published 2015).

Values joined by “and” are separate entries in the source; they are usually repeats but may differ in a detail not shown here. Equal values may be shown once.

Assay [1] deals with T1, recombinant human VEGF165 (human, UniProt P15692 27-191). Description: cell-based or functional assay.
Target sequence in this assay (P15692 other isoform, or with tags, fused parts or gaps): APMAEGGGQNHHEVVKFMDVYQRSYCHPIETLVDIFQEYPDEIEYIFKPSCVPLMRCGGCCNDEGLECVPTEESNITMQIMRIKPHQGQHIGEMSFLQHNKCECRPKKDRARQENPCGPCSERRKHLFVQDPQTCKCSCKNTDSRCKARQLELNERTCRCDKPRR
Assay [2] addresses T1, recombinant human VEGF165. Nature of the assay: cell-based or functional assay. This is another data set of the same source.
Assay [3] has as its target recombinant murine VEGF164 (mouse) (UniProt Q00731). Nature of the assay: Biacore SPR, VEGF immobilized, pH 5. In general terms: Surface plasmon resonance follows binding to a sensor surface in real time, without labels.
Assay [4] addresses recombinant rat VEGF164 (rat) (UniProt P16612). Nature of the assay: Biacore SPR, VEGF immobilized, pH 5.
In assay [5] the target is T1, recombinant human VEGF165. Nature of the assay: Biacore SPR, VEGF immobilized, pH 5.
Target sequence in this assay (P15692 other isoform, or with tags, fused parts or gaps): as above
Assay [6] concerns the target T2, recombinant human PLGF (human, UniProt P49763-2 19-149, limits assumed).
T2 construct: Negative control; also called PIGF
T2 sequence (looked up): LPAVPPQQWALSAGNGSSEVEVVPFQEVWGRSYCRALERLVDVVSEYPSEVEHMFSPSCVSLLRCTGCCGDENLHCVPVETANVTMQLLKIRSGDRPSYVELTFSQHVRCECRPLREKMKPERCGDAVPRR
Nature of the assay: Biacore SPR, PlGF immobilized, pH 5. The protocol: (§1) In this example, the Biacore-binding ability of scFvs was tested and the binding affinity was measured using the exemplary surface plasmon resonance method with BIAcore™-T100. The VEGF proteins, tested for binding by these scFv candidates, in this example and later examples include purified Escherichia coli-expressed recombinant human VEGF₁₆₅ (PeproTech EC Ltd.), recombinant human VEGF₁₂₁ (PeproTech EC Ltd.), recombinant human VEGF₁₁₀ (ESBATech AG), recombinant murine VEGF₁₆₄ (PeproTech EC Ltd.), recombinant rat VEGF₁₆₄ (Biovision), recombinant rabbit VEGF₁₁₀ (ESBATech AG), and recombinant human PLGF (PeproTech EC Ltd.). For the surface plasmon resonance experiment, carboxymethylated dextran biosensor chips (CM4, GE Healthcare) were activated with N-ethyl-N′-(3-dimethylaminopropyl) carbodiimide hydrochloride and N-hydroxysuccinimide according to the supplier's instructions. Each of the 6 different VEGF forms, as exemplified above, was coupled to 1 of the 4 different flow cells on a CM4 sensor chip using a standard amine-coupling procedure. […] The 4th flow cell of each chip was treated similarly except no proteins were immobilized prior to blocking, and the flow cell was used as in-line reference. […] Dissociation of the anti-VEGF scFv from the VEGF on the CM4 chip was allowed to proceed for 10 min at 25° C. Sensorgrams were generated for each anti-VEGF scFv sample after in-line reference cell correction followed by buffer sample subtraction. The apparent dissociation rate constant (kd), the apparent association rate constant (kₐ) and the apparent dissociation equilibrium constant (KD) were calculated using one-to-one Langmuir binding model with BIAcore T100 evaluation Software version 1.1.

Assay [7] deals with T1, recombinant human VEGF165. Description: Biacore SPR, VEGF immobilized, pH 5. The procedure:
as §1
This is another data set of the same source.
Target sequence in this assay (P15692 other isoform, or with tags, fused parts or gaps): as the sequence (P15692 other isoform, or with tags, fused parts or gaps) above

In assay [8] the target is T3, recombinant human VEGF121 (human, UniProt P15692 27-147).
T3 construct: mature; Isoform VEGF121 of the entry; also called hVEGF121
T3 sequence (looked up): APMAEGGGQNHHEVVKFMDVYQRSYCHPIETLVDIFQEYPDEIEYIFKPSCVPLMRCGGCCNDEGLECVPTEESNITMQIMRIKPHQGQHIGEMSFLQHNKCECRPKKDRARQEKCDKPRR
Nature of the assay: Biacore SPR, VEGF immobilized, pH 5. The protocol: as §1

Assay [9] has as its target T4, recombinant human VEGF110 (human, UniProt P15692-4 27-136, limits assumed).
T4 construct: Made in house; also called hVEGF110
T4 sequence (looked up): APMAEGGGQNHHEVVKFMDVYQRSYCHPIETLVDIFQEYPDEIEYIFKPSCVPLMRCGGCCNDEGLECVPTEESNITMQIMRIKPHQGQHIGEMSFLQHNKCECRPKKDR
Description: Biacore SPR, VEGF immobilized, pH 5. The protocol:
as §1

The target in assay [10] is T1, recombinant human VEGF165. Description: Biacore SPR, VEGF immobilized, pH 5. The source holds these as a separate data set.
Target sequence in this assay (P15692 other isoform, or with tags, fused parts or gaps): as the sequence (P15692 other isoform, or with tags, fused parts or gaps) above
Assay [11] has as its target T1, recombinant human VEGF165. Description: Biacore SPR, VEGF immobilized, pH 7.4.
Target sequence in this assay (P15692 other isoform, or with tags, fused parts or gaps): as the sequence (P15692 other isoform, or with tags, fused parts or gaps) above
For assay [12], the target named is T1, recombinant human VEGF165. Description: VEGFR1/Fc competition ELISA on coated hVEGF165; ratio to Lucentis. The procedure: After 30-60 min of incubation at room temperature, the mixtures were transferred to the human VEGF₁₆₅ immobilized plate and incubated for 90 min. […] Optical density at 450 nm (OD 450 nm) was measured using a Sunrise microplate reader (Tecan). Data were analyzed as above, and EC₅₀ values were calculated from the dose-response curves of the scFvs.
In general terms: An ELISA detects its analyte on a solid surface through an enzyme-linked reagent.
Target sequence in this assay (P15692 other isoform, or with tags, fused parts or gaps): as the sequence (P15692 other isoform, or with tags, fused parts or gaps) above

Assay [13] deals with recombinant murine VEGF164 (mouse) (UniProt Q00731). Nature of the assay: cell-based or functional assay.
For assay [14], the target named is recombinant rat VEGF164 (rat) (UniProt P16612). Description: cell-based or functional assay.
In assay [15] the target is T1, recombinant human VEGF165. Description: cell-based or functional assay. This is another data set of the same source.
Assay [16] addresses recombinant murine VEGF164 (mouse) (UniProt Q00731). Description: Biacore SPR; ratio to hVEGF165.
For assay [17], the target named is recombinant rat VEGF164 (rat) (UniProt P16612). Nature of the assay: Biacore SPR; ratio to hVEGF165.
Assay [18] addresses recombinant murine VEGF164 (mouse) (UniProt Q00731). Nature of the assay: Biacore SPR, pH 7.4 (data not shown).
Assay [19] addresses recombinant rat VEGF164 (rat) (UniProt P16612). Description: Biacore SPR, pH 7.4 (data not shown).
Assay [20] addresses recombinant murine VEGF164 (mouse) (UniProt Q00731). Description: Biacore SPR, pH 5 (text; Table 8b prints 5.67E-10).

B1: 511-max (scFv)
scFv: EIVMTQSPSTLSASVGDRVIITCQASQSINIWLSWYQQKPGKAPKLLIYRASTLASGVPSRFSGSGSGTEFTLTISSLQPDDFATYYCQANYAYSAGYGAAFGQGTKLTVLGGGGGSGGGGSGGGGSGGGGSEVQLVESGGGLVQPGGSLRLSCTVSGFSLNTYYMNWVRQAPGKGLEWVGIIAPDDTTYYASWAKSRSTISRDTSKNTVYLQMNSLRAEDTAVYYCARSGDTTAWGADIWGQGTLVTVSS
notes: also called ESBA802
For B1, in [1], the “Rel. activity in HUVEC assay (EC50Luc[nM]/EC50test[nM])” value amounted to 0.0179. The “Rel. activity in HUVEC assay (EC50Luc[nM]/EC50test[nM]) hVEGF” value in assay [2] stood at 0.0179. Further, the dissociation rate constant (koff) in [3] was 4.61e-05 s⁻¹; in assay [4], 6.63e-05 s⁻¹; in [5], 4.4e-05 s⁻¹; in assay [7], 4.4e-05 s⁻¹; in assay [8], 9.97e-05 s⁻¹; in [9], 7.96e-05 s⁻¹. The values for the koff in assay [10] and in [11] were 4.4e-05 s⁻¹ and 6.85e-05 s⁻¹, respectively. Besides, the kon was 753000 M⁻¹ s⁻¹ in assay [3]; 626000 M⁻¹ s⁻¹ in assay [4]; 659000 M⁻¹ s⁻¹ in assay [5]; 659000 M⁻¹ s⁻¹ in [7]; 467000 M⁻¹ s⁻¹ in assay [8]; 405000 M⁻¹ s⁻¹ in assay [9]. Further, the kon in [10] came to 659000 M⁻¹ s⁻¹; in [11], 800000 M⁻¹ s⁻¹. In [6], the binding result is recorded as “no binding”. Further, the “Rel. activity hVEGR1 comp. ELISA (EC50Luc[nM]/EC50test[nM])” value in [12] amounted to 8.

B2: 578minmax (scFv)
scFv: EIVMTQSPSTLSASVGDRVIITCQASEIIHSWLAWYQQKPGKAPKLLIYLASTLASGVPSRFSGSGSGAEFTLTISSLQPDDFATYYCQNVYLASTNGANFGQGTKLTVLGGGGGSGGGGSGGGGSGGGGSEVQLVESGGGLVQPGGSLRLSCTASGFSLTDYYYMTWVRQAPGKGLEWVGFIDPDDDPYYATWAKGRFTISRDTSKNTVYLQMNSLRAEDTAVYYCAGGDHNSGWGLDIWGQGTLVTVSS
notes: also called ESBA903; 903
As for B2, the EC50, HUVEC proliferation induced by mouse VEGF164 in [13] turned out to be 0.0631 nM. For the same molecule, the EC50, HUVEC proliferation induced by rat VEGF164 in assay [14] stood at 0.0697 nM. Moreover, in assay [15], the “EC50, HUVEC proliferation induced by hVEGF165” value was 0.0552 nM and the “potency in HUVEC assay relative to Lucentis” value was approximately 1.6 fold. Also, in assay [16], the relative value KdhVEGF165/KdmVEGF164 was determined as 1.1 and the relative value kdhVEGF165/kdmVEGF164 came out at 0.8. Besides, in assay [17], the relative value KdhVEGF165/KdmVEGF164 (rat block) came to 0.8 and the relative value kdhVEGF165/kdmVEGF164 (rat block) came out at 0.8. Besides, the “Rel. activity in HUVEC assay (EC50Luc[nM]/EC50test[nM]) hVEGF” value in assay [2] was 1.6 and 1.4. Moreover, in assay [3], the Kd was 0.567 nM, the koff came to 0.000657 s⁻¹ and the kon worked out at 1.14e+06 M⁻¹ s⁻¹. Also, in assay [4], the Kd amounted to 0.748 nM, the koff came to 0.000641 s⁻¹ and the kon turned out to be 858000 M⁻¹ s⁻¹. Besides, the Kd in assay [18] was 0.0273 nM. Besides, the Kd in [19] was determined as 0.0219 nM. Further, in assay [10], the Kd turned out to be 0.625 nM, the koff was determined as 0.000504 s⁻¹ and the kon came out at 806000 M⁻¹ s⁻¹. The Kd in assay [20] came out at 0.576 nM.

B3: 578-min (scFv)
scFv: EIVMTQSPSTLSASVGDRVIITCQASEIIHSWLAWYQQKPGKAPKLLIYLASTLASGVPSRFSGSGSGAEFTLTISSLQPDDFATYYCQNVYLASTNGANFGQGTKLTVLGGGGGSGGGGSGGGGSGGGGSEVQLVESGGGLVQPGGSLRLSCAASGFSLTDYYYMTWVRQAPGKGLEWVSFIDPDDDPYYATWAKGRFTISRDNSKNTLYLQMNSLRAEDTAVYYCAKGDHNSGWGLDIWGQGTLVTVSS
notes: also called EP578 min; Protein Nr; 820
As to B3, the “EC50 in HUVEC assay (FIG. 8d)” value in [15] was 1.53 nM. In addition, in assay [1], the “Rel. activity in HUVEC assay (EC50Luc[nM]/EC50test[nM])” value came to 0.1. Besides, in assay [2], the “Rel. activity in HUVEC assay (EC50Luc[nM]/EC50test[nM]) hVEGF” value was 0.1. Further, the koff came out at 0.0151 s⁻¹ in assay [3]; 0.0182 s⁻¹ in assay [4]; 0.0103 s⁻¹ in assay [5]; 0.0103 s⁻¹ in assay [7]; 0.0088 s⁻¹ in [8]; 0.0104 s⁻¹ in [9]. The figures for the koff in [10] and in [11] were 0.0103 s⁻¹ and 0.000202 s⁻¹, respectively. The kon in assay [3] was determined as 1.4e+06 M⁻¹ s⁻¹; in assay [4], 1.7e+06 M⁻¹ s⁻¹; in assay [5], 1.14e+06 M⁻¹ s⁻¹; in [7] it was 1.14e+06 M⁻¹ s⁻¹; in assay [8], 961000 M⁻¹ s⁻¹; in [9], 915000 M⁻¹ s⁻¹. Also, the kon in assay [10] is 1.14e+06 M⁻¹ s⁻¹; in [11], 1.11e+06 M⁻¹ s⁻¹. For the same molecule, the binding result in assay [6] is reported as “no binding”. The “Rel. activity hVEGR1 comp. ELISA (EC50Luc[nM]/EC50test[nM])” value in assay [12] came to 4.8.

B4: 534-max (scFv)
scFv: EIVMTQSPSTLSASVGDRVIITCQASQSINIWLSWYQQKPGKAPKLLIYKESTLASGVPSRFSGSGSGTEFTLTISSLQPDDFATYYCQNNYDSGNNGFPFGQGTKLTVLGGGGGSGGGGSGGGGSGGGGSEVQLVESGGGLVQPGGSLRLSCTASGFSLSYYYMSWVRQAPGKGLEWVGIIGPGDYTDYASWAKGRFTISKDTSKNTVYLQMNSLRAEDTAVYYCARGDDNSGWGEDIWGQGTLVTVSS
notes: VL and VH tied by name; also called EP534max; Protein Nr; 793
In the case of B4, in assay [15], the “EC50 in HUVEC assay (FIG. 8c)” value is 63.5 nM. In addition, the “Rel. activity in HUVEC assay (EC50Luc[nM]/EC50test[nM])” value in assay [1] was 0.0014. Also, the figures for the koff in [5] and in assay [11] were 0.0173 s⁻¹ and 0.00262 s⁻¹, respectively. In addition, the figures for the kon in [5] and in [11] were 1.88e+06 M⁻¹ s⁻¹ and 1.06e+06 M⁻¹ s⁻¹, respectively.

A word on the koff: it is the first-order rate constant of dissociation. The term kon denotes the second-order rate constant of association. In general, Kd refers to the equilibrium constant for the complex coming apart.
